Laboratory results reported in patent US20120058906A1 (published 2012).

Key:
[1] = molecular target: T1, rHuman Erythropoietin R/Fc Chimera, CF (R&D Systems Cat#963-ER) (human, UniProt P19235 25-250); experiment: ECL (MSD Multi-Spot) binding assay, antigen spotted on plate; Fab 15 nM; blank spot 261
T1 construct: Bought Fc chimera; also called EPO R/Fc; Epo R; Fc part of the bought chimera not given
T1 sequence: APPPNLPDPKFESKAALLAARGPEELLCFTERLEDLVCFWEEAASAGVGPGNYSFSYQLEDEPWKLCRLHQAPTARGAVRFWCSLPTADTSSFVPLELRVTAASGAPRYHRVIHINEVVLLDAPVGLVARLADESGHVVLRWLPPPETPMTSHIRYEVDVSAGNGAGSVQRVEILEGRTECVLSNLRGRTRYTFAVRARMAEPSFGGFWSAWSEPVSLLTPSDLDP

[2] = molecular target: T2, Recombinant Human DLL4 (R&D Systems Cat#1506-D4/CF) (human, UniProt Q9NR61 27-524); experiment: as above
T2 construct: Bought recombinant protein; also called delta-like protein 4; rHuman DLL4

[3] = molecular target: T3, rHuman Notch-1/Fc Chimera, CF (R&D Systems Cat#3647-TK) (human, UniProt P46531 19-526); experiment: as above
T3 construct: Bought Fc chimera; Fc part of the bought chimera not given

[4] = molecular target: T4, rHuman CD44/Fc Chimera, CF (R&D Systems Cat#3660-CD) (human, UniProt P16070 21-220); experiment: as above
T4 construct: Bought Fc chimera; Fc part of the bought chimera not given

[5] = molecular target: T5, rHuman P-Cadherin/Fc Chimera, CF (R&D Systems Cat#861-PC) (human, UniProt P22223 108-654); experiment: as above
T5 construct: Bought Fc chimera; also called CDH3; Fc part of the bought chimera not given

[6] = molecular target: T6, rHuman IGF-1 sR (insulin-like growth factor-1 soluble receptor), CF (R&D Systems Cat#391-GR) (human, UniProt P08069 31-932); experiment: ECL (MSD multi-spot), antigen on plate, Fab 50 nM
T6 construct: Bought soluble receptor; also called IGF-R1

[7] = molecular target: T7, rHuman P-Cadherin/Fc Chimera, CF (R&D Systems Cat#861-PC) (human, UniProt P22223 108-654); experiment: ECL (MSD multi-spot), antigen on plate, Fab 50 nM
T7 construct: Bought Fc chimera; also called CDH3; not shown: Fc of the bought chimera

[8] = molecular target: T8, rHuman Erythropoietin R/Fc Chimera, CF (R&D Systems Cat#963-ER) (human, UniProt P19235 25-250); experiment: ECL (MSD multi-spot), antigen on plate, Fab 50 nM
T8 construct: Bought Fc chimera; also called EPO R/Fc; Epo R; not shown: Fc of the bought chimera
T8 sequence: T1 sequence

[9] = molecular target: T9, Recombinant Human DLL4 (R&D Systems Cat#1506-D4/CF) (human, UniProt Q9NR61 27-524); experiment: ECL (MSD multi-spot), antigen on plate, Fab 50 nM
T9 construct: Bought recombinant protein; also called delta-like protein 4

[10] = molecular target: T10, rHuman ErbB2/Fc Chimera, CF (R&D Systems Cat#1129-ER) (human, UniProt P04626 23-652); experiment: ECL (MSD multi-spot), antigen on plate, Fab 50 nM
T10 construct: Bought Fc chimera; also called HER2/neu; not shown: Fc of the bought chimera

[11] = molecular target: T11, rHuman EGF R/Fc Chimera, CF (R&D Systems Cat#344-ER) (human, UniProt P00533 25-645); experiment: ECL (MSD multi-spot), antigen on plate, Fab 50 nM
T11 construct: Bought Fc chimera; also called ErbB-1; not shown: Fc of the bought chimera

[12] = molecular target: T12, rHuman Notch-1/Fc Chimera, CF (R&D Systems Cat#3647-TK) (human, UniProt P46531 19-526); experiment: ECL (MSD multi-spot), antigen on plate, Fab 50 nM
T12 construct: Bought Fc chimera; not shown: Fc of the bought chimera

[13] = molecular target: T13, rHuman Erythropoietin R/Fc Chimera, CF (R&D Systems Cat#963-ER) (human, UniProt P19235 25-250); experiment: ECL (MSD multi-spot), antigen spotted on plate; Fab 11 nM; blank spot 212
T13 construct: Bought reagent; also called EPO R/Fc; Epo R; Fc part of the bought chimera not given
T13 sequence: T1 sequence

[14] = molecular target: T14, Recombinant Human DLL4 (R&D Systems Cat#1506-D4/CF) (human, UniProt Q9NR61 27-524); experiment: as above
T14 construct: Bought reagent; also called delta-like protein 4

[15] = molecular target: T15, rHuman ErbB2/Fc Chimera, CF (R&D Systems Cat#1129-ER) (human, UniProt P04626 23-652); experiment: as above
T15 construct: Bought reagent; also called HER2/neu; human epidermal growth factor 2 receptor; Fc part of the bought chimera not given

[16] = molecular target: T16, rHuman Notch-1/Fc Chimera, CF (R&D Systems Cat#3647-TK) (human, UniProt P46531 19-526); experiment: as above
T16 construct: Bought reagent; Fc part of the bought chimera not given

[17] = molecular target: T17, rHuman CD44/Fc Chimera, CF (R&D Systems Cat#3660-CD) (human, UniProt P16070 21-220); experiment: as above
T17 construct: Bought reagent; Fc part of the bought chimera not given

[18] = molecular target: T18, rHuman IGF-1 sR (IGF-1 sR), CF (R&D Systems Cat#391-GR) (human, UniProt P08069 31-932); experiment: as above
T18 construct: Bought soluble receptor; also called insulin-like growth factor-1 soluble receptor; IGF-R1
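Also: blank spot per well as comparator with Hit at signal to blank ratio of 4 or more.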

B1: Fab VH6-1_IGHD3-3*01_IGHJ4*01 & V4-3_IGLJ4*01 (Fab, V domains shown)
VH: QVQLQQSGPGLVKPSQTLSLTCAISGDSVSSNSAAWNWIRQSPSRGLEWLGRTYYRSKWYNDYAVSVKSRITINPDTSKNQFSLQLNSVTPEDTAVYYCAREYYDFWSGYYTDYFDYWGQGTLVTVSS
VL: QPVLTQPTSLSASPGASARLTCTLRSGINLGSYRIFWYQQKPESPPRYLLSYYSDSSKHQGSGVPSRFSGSKDASSNAGILVISGLQSEDEADYYCMIWHSSASFVFGGGTQLIIL
notes: Tested as a Fab made in E. coli; also called IGHV6-1*01
ECL signal [1]: 397 | ECL signal [2]: 690 | ECL signal [3]: 508 | ECL signal [4]: 454 | ECL signal [5]: 351

B2: Fab VH1-46_IGHD6-6*01_IGHJ1*01_S102A_S103P_S104F & L6_IGKJ1*01_S30N (Fab, V domains shown)
VH: QVQLVQSGAEVKKPGASVKVSCKASGYTFTSYYMHWVRQAPGQGLEWMGIINPSGGSTSYAQKFQGRVTMTRDTSTSTVYMELSSLRSEDTAVYYCAREEYAPFSAEYFQHWGQGTLVTVSS
VL: EIVLTQSPATLSLSPGERATLSCRASQSVNSYLAWYQQKPGQAPRLLIYDASNRATGIPARFSGSGSGTDFTLTISSLEPEDFAVYYCQQRSNWPPWTFGQGTKVEIKR
notes: Fab
ECL signal [6]: 240 ECL signal | ECL signal [7]: 143 ECL signal | ECL signal [8]: 500 ECL signal | ECL signal [9]: 37200 ECL signal | ECL signal [10]: 395 ECL signal | ECL signal [11]: 294 ECL signal | ECL signal [12]: 279 ECL signal

B3: Fab VH1-46_IGHD3-10*01_IGHJ4*01 & B3_IGKJ1*01 (Fab, V domains shown)
VH: QVQLVQSGAEVKKPGASVKVSCKASGYTFTSYYMHWVRQAPGQGLEWMGIINPSGGSTSYAQKFQGRVTMTRDTSTSTVYMELSSLRSEDTAVYYCAREYYYGSGSYYNDYFDYWGQGTLVTVSS
VL: not shown
notes: also called IGHV1-46*01
ECL signal [13]: 1820 | ECL signal [14]: 254 | ECL signal [15]: 216 | ECL signal [16]: 404 | ECL signal [17]: 296 | ECL signal [18]: 289
